Data taken from PMC3138748, “A Small Peptide Modeled after the NRAGE Repeat Domain Inhibits XIAP-TAB1-TAK1 Signaling for NF-κB Activation and Apoptosis in P19 Cells” (PLoS ONE, 2011).
Each block holds one binder with its values, some of them ahead of it.

Columns and labels:
Experiment in all cases: FRET or BRET; donor dequenching ECFP:EYFP FRET, confocal; co-transfected 293T cells, fixed with 4% paraformaldehyde 48 h after transfection; no BMP ligand
Details in all cases: partners not purified
[1] = target: T1, ECFP-XIAP (UniProt Q60989 1-496)
T1 construct: also called C-X; source: 293T, co-transfected, in fixed cells; not shown: ECFP, N-terminal, kept
T1 sequence (Q60989 whole entry): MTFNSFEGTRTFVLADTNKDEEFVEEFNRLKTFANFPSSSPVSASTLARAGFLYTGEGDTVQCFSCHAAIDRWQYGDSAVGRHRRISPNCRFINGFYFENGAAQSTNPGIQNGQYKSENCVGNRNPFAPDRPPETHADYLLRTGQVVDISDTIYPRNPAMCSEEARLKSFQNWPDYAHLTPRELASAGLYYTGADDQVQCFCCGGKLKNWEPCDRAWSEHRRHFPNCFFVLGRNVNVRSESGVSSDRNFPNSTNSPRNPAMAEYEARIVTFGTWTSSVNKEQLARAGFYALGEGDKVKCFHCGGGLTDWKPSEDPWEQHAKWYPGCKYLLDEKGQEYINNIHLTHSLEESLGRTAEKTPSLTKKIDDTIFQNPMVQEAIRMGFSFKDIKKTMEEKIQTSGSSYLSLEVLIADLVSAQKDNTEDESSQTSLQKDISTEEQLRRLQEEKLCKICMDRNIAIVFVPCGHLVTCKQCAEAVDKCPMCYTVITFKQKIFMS

[2] = target: T2, CFP-NRAGE (full-length NRAGE) (UniProt Q9ES73 1-775)
T2 construct: NRAGE (MAGE-D1), full length; the cloning of this construct is not described; also called C-NR; source: 293T, co-transfected, in fixed cells
T2 sequence (looked up): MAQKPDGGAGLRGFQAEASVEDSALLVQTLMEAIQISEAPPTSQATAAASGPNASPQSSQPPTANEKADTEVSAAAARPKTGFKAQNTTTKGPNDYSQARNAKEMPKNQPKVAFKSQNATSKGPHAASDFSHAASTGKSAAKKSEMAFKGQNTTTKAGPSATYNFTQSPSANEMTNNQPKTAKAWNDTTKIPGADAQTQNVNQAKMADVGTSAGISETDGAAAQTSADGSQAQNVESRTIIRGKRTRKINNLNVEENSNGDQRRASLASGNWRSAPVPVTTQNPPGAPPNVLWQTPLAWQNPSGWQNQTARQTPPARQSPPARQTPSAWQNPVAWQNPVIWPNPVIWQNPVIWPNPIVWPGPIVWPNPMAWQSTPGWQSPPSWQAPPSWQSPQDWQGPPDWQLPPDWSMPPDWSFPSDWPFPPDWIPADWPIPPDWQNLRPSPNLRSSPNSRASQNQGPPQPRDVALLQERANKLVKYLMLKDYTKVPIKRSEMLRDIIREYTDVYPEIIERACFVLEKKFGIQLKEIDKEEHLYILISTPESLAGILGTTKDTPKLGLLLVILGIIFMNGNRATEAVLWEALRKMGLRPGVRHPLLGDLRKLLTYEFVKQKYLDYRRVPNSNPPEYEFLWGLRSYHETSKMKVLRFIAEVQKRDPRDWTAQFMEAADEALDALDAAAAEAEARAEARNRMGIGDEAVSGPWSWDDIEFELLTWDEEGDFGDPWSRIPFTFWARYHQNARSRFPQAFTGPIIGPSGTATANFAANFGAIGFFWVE

[3] = target: T3, EYFP-XIAP (UniProt Q60989 1-496)
T3 construct: also called Y-X; source: 293T, co-transfected, in fixed cells; not shown: EYFP, N-terminal, kept
T3 sequence (Q60989 whole entry): as the sequence (Q60989 whole entry) above

[4] = target: T4, YFP-NRAGE (full-length NRAGE) (UniProt Q9ES73 1-775)
T4 construct: NRAGE (MAGE-D1), full length; the cloning of this construct is not described; also called Y-NR; source: 293T, co-transfected, in fixed cells
T4 sequence (looked up): T2 sequence (looked up)

- average peak energy transfer efficiency (FRET) [1]: 0.34%
- average peak energy transfer efficiency (FRET) [2]: 0.36%
B1: NRAGE peptide-YFP (NRAGE peptide DNA in pEYFP-N1) (peptide)
chain: PPAWQTPPAWQTPPAWQTPPAWQT
notes: four repeats of the final consensus hexapeptide PPAWQT of the NRAGE repeat domain; also called pep-Y; NRAGE peptide DNA-YFP; source: 293T, co-transfected, in fixed cells; not shown: EYFP, C-terminal, kept

- average peak energy transfer efficiency (FRET) [3]: 0.46%
- average peak energy transfer efficiency (FRET) [4]: 0.41%
B2: NRAGE peptide-CFP (NRAGE peptide DNA in pECFP-N1) (peptide)
chain: PPAWQTPPAWQTPPAWQTPPAWQT
notes: four repeats of the final consensus hexapeptide PPAWQT of the NRAGE repeat domain; also called pep-C; NRAGE peptide DNA-CFP; source: 293T, co-transfected, in fixed cells; not shown: ECFP, C-terminal, kept
